In PMC10998830:
“And” between values parts separate entries of the source, which are not always exact repeats. Equal values may be shown once.

Legend:
[1] = substrate: Nc1ncnc2c1ncn2[C@@H]1O[C@H](COP(=O)(O)OP(=O)(O)O)[C@@H](O)[C@H]1O; experiment: purified protein, by the assay type; conditions: 25.0 °C
Method: (§1) Kinetics and thermal denaturation data were analysed by the nonlinear regression function of SigmaPlot 14.0 (SPSS Inc.). Thermal denaturation data were fitted to Eq. (1). Substrate saturation curves at a fixed concentration of the co-substrate were fitted to Eq. (2). Initial rate data at varying concentrations of HisZ were fitted to Eq. (3). The concentration of ATPPRT at any concentration of AbHisGS and AbHisZ was calculated according to Eq. (4). Histidine dose-response data were fitted to Eq. (5). Single-turnover data with WT-AbATPPRT isotopologues were fitted to Eq. (6). Plots of kcat ratios against relative viscosity were fitted to Eq. (7). Temperature-rate profile for AbHisGS was fitted to Eq. (8). Single-turnover data with R70A-AbATPPRT isotopologues were fitted to Eq. (9). In Eqs. […] While kcats for [^13C,^15N]AbHisGS and [^2H,^13C,^15N]AbHisGS are marginally lower than for unlabelled AbHisGS and [^15N]AbHisGS, the overlapping nature of most data points in Fig. 1c disagrees with distinguishable heavy-enzyme kinetic isotope effects on kcat (^HEkcat). […] This was further probed by pre-steady-state kinetics under multiple-turnover conditions. The AbHisGS reaction had been shown not to have a burst of product formation, which is reproduced here for unlabelled AbHisGS, whose traces overlap with those for [^2H,^13C,^15N]AbHisGS (Supplementary Fig. 5). S5 Supplementary Figure 4 Substrate saturation curves for unlabelled AbATPPRT with AbHisGS purified from cultures grown in M9 and M9 with high cell density compared with previously published data (reproduced here) for unlabelled AbATPPRT with AbHisGS purified from cultures grown in LB. For the M9 and M9 high cell density curves, all data points are shown for two independent measurements, except for the previously published LB curves, where data are the mean of two independent measurements. Lines are best fit of the data to equation (2): solid line for M9 high cell density curves, long-dashed line for M9 curves, and short-dashed line for previously published LB curves. […]

[2] = substrate: Nc1ncnc2c1ncn2[C@@H]1O[C@H](COP(=O)(O)OP(=O)(O)OP(=O)(O)O)[C@@H](O)[C@H]1O; experiment: purified protein, by the assay type; conditions: 25.0 °C
Method: as §1

[3] = substrate: O=P(O)(O)OC[C@H]1O[C@H](OP(=O)(O)OP(=O)(O)O)[C@H](O)[C@@H]1O; experiment: purified protein, by the assay type; conditions: 25.0 °C
Method: as §1

[4] = substrate: O=P(O)(O)OC[C@H]1O[C@H](OP(=O)(O)OP(=O)(O)O)[C@H](O)[C@@H]1O; experiment: purified protein, by the assay type; conditions: 25.0 °C; remark: listed apart in the source
Method: To assess the effect of increased AbHisGS mass in catalysis, we purified AbHisGS from heterologous expression in M9 medium supplemented with different isotopes to produce AbHisGS carrying natural isotope abundance (unlabelled AbHisGS), [^15N]AbHisGS, [^13C,^15N]AbHisGS, and [^2H,^13C,^15N]AbHisGS (the ^2H is incorporated in non-exchangeable positions) (Supplementary Fig. 1). […] AbATPPRT substrate saturation curves at 25 °C using unlabelled AbHisGS produced from heterologous expression in LB medium by our published protocol[30] and unlabelled AbHisGS generated here from expression in M9 medium and in M9 with high cell density induction[47] […] S5 Supplementary Figure 4 Substrate saturation curves for unlabelled AbATPPRT with AbHisGS purified from cultures grown in M9 and M9 with high cell density compared with previously published data (reproduced here) for unlabelled AbATPPRT with AbHisGS purified from cultures grown in LB. For the M9 and M9 high cell density curves, all data points are shown for two independent measurements, except for the previously published LB curves, where data are the mean of two independent measurements. […] Kinetics and thermal denaturation data were analysed by the nonlinear regression function of SigmaPlot 14.0 (SPSS Inc.). […] The concentration of ATPPRT at any concentration of AbHisGS and AbHisZ was calculated according to Eq. (4). […]

[5] = substrate: Nc1ncnc2c1ncn2[C@@H]1O[C@H](COP(=O)(O)OP(=O)(O)OP(=O)(O)O)[C@@H](O)[C@H]1O; experiment: purified protein, by the assay type; conditions: 25.0 °C; remark: listed apart in the source
Method: as §1, with “5).” for “5). S5 Supplementary Figure 4 Substrate saturation curves for unlabelled AbATPPRT with AbHisGS purified from cultures grown in M9 and M9 with high cell density compared with previously published data (reproduced here) for unlabelled AbATPPRT with AbHisGS purified from cultures grown in LB. For the M9 and M9 high cell density curves, all data points are shown for two independent measurements, except for the previously published LB curves, where data are the mean of two independent measurements. Lines are best fit of the data to equation (2): solid line for M9 high cell density curves, long-dashed line for M9 curves, and short-dashed line for previously published LB curves.”

purified protein = substrate: Nc1ncnc2c1ncn2[C@@H]1O[C@H](COP(=O)(O)OP(=O)(O)O)[C@@H](O)[C@H]1O; experiment: purified protein; format: biochemical, Acinetobacter baumannii; conditions: 25 °C, pH 8.5, 1.6 mM PRPP, 15 mM MgCl2, 100 mM KCl, unlabelled enzyme
[6] = substrate: O=P(O)(O)OC[C@H]1O[C@H](OP(=O)(O)OP(=O)(O)O)[C@H](O)[C@@H]1O; experiment: purified protein, by the assay type; conditions: 25.0 °C; remark: listed apart in the source
Method: as §1, with “5).” for “5). S5 Supplementary Figure 4 Substrate saturation curves for unlabelled AbATPPRT with AbHisGS purified from cultures grown in M9 and M9 with high cell density compared with previously published data (reproduced here) for unlabelled AbATPPRT with AbHisGS purified from cultures grown in LB. For the M9 and M9 high cell density curves, all data points are shown for two independent measurements, except for the previously published LB curves, where data are the mean of two independent measurements. Lines are best fit of the data to equation (2): solid line for M9 high cell density curves, long-dashed line for M9 curves, and short-dashed line for previously published LB curves.”

B1: AbATPPRT (Acinetobacter baumannii ACICU) (protein)
chain: MNDVRNDDPNFNVMGNFDHGLTLALSKGRILKETLPLLATAGINLLEDPEKSRKLIFPTTHKQVRILILRASDVPTYVENGAADLGVAGKDVLMEHGAQHVYELLDLQIAKCKLMTAGKVGMERPKGRLKIATKYVNLTRQYYASLGEQVDVIKLYGSMELAPLVGLGDYIVDVVDTGNTLRANGLEPLEEICKVSSRLIVNKASFKRKQVLLNPIISQLEQAVQSR
notes: hetero-octameric holoenzyme (two HisGS dimers flanking a HisZ tetramer) reconstituted in vitro from separately purified recombinant AbHisGS (E. coli BL21(DE3)) and AbHisZ; unlabelled (natural isotope abundance)
- Km [1]: 300 µM and 280 µM
- Km [2]: 130 ± 20 µM
- Km [3]: 120 ± 10 µM
- Km [4]: 96 µM
- kcat [4]: 16.6 ± 0.4 s⁻¹
- Km [5]: 170 ± 30 µM and 210 ± 30 µM
- Km (purified protein): 350 ± 40 µM
- kcat (purified protein): 16.6 ± 0.4 s⁻¹
- Km [6]: 80 µM and 85 µM
